Assay results as given in patent publication US11781101B2, “3D-printed models of biological microenvironments” (Regents of the University of Minnesota, priority 2018, dated 2023).

Legend:
[1] = test system: GFP-A549 lung cancer cells; assay: 3D-printed directional cell migration chamber, EGF capsules, A549; format: cell-based
Source text: In the example experiment illustrated in FIG. 14, a droplet of fibrin loaded with GFP-A549 lung cancer cells 1400 was printed between linear arrays of chemoattractant capsules 1404 (right) and blank control capsules 1402 (left). The printed droplet defined the primary site of the tumor cells 1400. To generate a long-lasting EGF gradient, capsules 1402 and 1404 were ruptured sequentially at 2-day intervals, starting with the capsule 1408A closest to the cell 1400. Concomitantly, a corresponding control capsule 1408B was also ruptured. The resulting EGF gradient and GFP-A549 response to the gradient is discussed below with respect to FIGS. 15A-17.
FIG. 15B is panoramic fluorescence images illustrating distribution of the GFP-expressing A549 cells of FIG. 15A over time during days 6-10 post-laser rupture of the EGF-containing programmable-release capsules of FIG. 15A. […]
FIG. 16 is a graphical representation of cellular fluorescence intensity of example EGF-expressing A549 cells vs time, with and without EGF release from example programmable-release capsules within a cell migration chamber in accordance with examples of this disclosure. […] The cellular growth rates were first quantitatively compared between samples with and without laser-triggered release of EGF by directly analyzing the fluorescence intensity of GFP-expressing cells. […]

[2] = test system: A549 cells in HUVEC-lined conduit; assay: Vascularized extravasation model, EGF capsules; format: cell-based; conditions: EGF gradients from ruptured capsules, fibroblast-laden gel, by day 4
Source text: FIG. 24A is confocal images of a top view and a side view of a representative microchannel lined by HUVECs within a fibrin gel, such as in the context of the example 3D-printed culture chamber of FIG. 23. FIG. 24B is a fluorescence image of a representative microchannel lined by HUVECs and perfused by fluorescent fluid. In the example of FIG. 24A, a microchannel was created using the pin-molding technique within the fibrin gel of the culture chamber. […]
FIG. 26A is fluorescence images of a conduit of an example vascularized 3D-printed culture chamber illustrating guided extravasation of A549s and subsequent metastases generated over time on days 0 and 2 following the programmable release of EGF from EGF-containing programmable release capsules in accordance with examples of this disclosure. FIG. 26B is fluorescence images of the conduit of FIG. 26A illustrating guided extravasation of A549s and subsequent metastases generated over time on days 4 and 6 following laser-triggered rupture of EGF-containing programmable-release capsules (inset: fluorescence image showing transendothelial formation of metastasis). […]
FIG. 27 is fluorescence images showing the vascularized extravasation model of FIG. 26 after A549s were injected within the conduit without rupture of EGF capsules. […]

[3] = test system: GFP-expressing M4A4 cells (a melanoma cell line); assay: 3D-printed directional cell migration chamber, EGF capsules, M4A4; format: cell-based; conditions: EGF capsules sequentially ruptured over 10 days
Source text: (§1) FIG. 21 is a graphical representation of relative selective directed migration of A549 tumor cells, M4A4 tumor cells, and non-tumor HUVEC cells of FIGS. 20A and 20B in response to laser rupture of the EGF-containing programmable release capsules within an example cell migration chamber in accordance with examples of this disclosure. FIG. 21 illustrates distributions of GFP-A549s, GFP-M4A4s, and RFP-HUVECs on day 10, showing the selective directed migration of tumor cells but not HUVECs (mean±s.d., n=4 per group). Scale bar: 500 μm.

[4] = test system: RFP-expressing HUVEC cells; assay: 3D-printed directional cell migration chamber, EGF capsules, HUVEC; format: cell-based, human; conditions: EGF capsules sequentially ruptured over 10 days
Source text: as §1

B1: EGF: EGF, a chemoattractant of carcinoma cells, encapsulated in programmable-release capsules (protein, UniProt P01133 23-1207, looked up)
Pro-epidermal growth factor: PQHWSCPEGTLAGNGNSTCVGPAPFLIFSHGNSIFRIDTEGTNYEQLVVDAGVSVIMDFHYNEKRIYWVDLERQLLQRVFLNGSRQERVCNIEKNVSGMAINWINEEVIWSNQQEGIITVTDMKGNNSHILLSALKYPANVAVDPVERFIFWSSEVAGSLYRADLDGVGVKALLETSEKITAVSLDVLDKRLFWIQYNREGSNSLICSCDYDGGSVHISKHPTQHNLFAMSLFGDRIFYSTWKMKTIWIANKHTGKDMVRINLHSSFVPLGELKVVHPLAQPKAEDDTWEPEQKLCKLRKGNCSSTVCGQDLQSHLCMCAEGYALSRDRKYCEDVNECAFWNHGCTLGCKNTPGSYYCTCPVGFVLLPDGKRCHQLVSCPRNVSECSHDCVLTSEGPLCFCPEGSVLERDGKTCSGCSSPDNGGCSQLCVPLSPVSWECDCFPGYDLQLDEKSCAASGPQPFLLFANSQDIRHMHFDGTDYGTLLSQQMGMVYALDHDPVENKIYFAHTALKWIERANMDGSQRERLIEEGVDVPEGLAVDWIGRRFYWTDRGKSLIGRSDLNGKRSKIITKENISQPRGIAVHPMAKRLFWTDTGINPRIESSSLQGLGRLVIASSDLIWPSGITIDFLTDKLYWCDAKQSVIEMANLDGSKRRRLTQNDVGHPFAVAVFEDYVWFSDWAMPSVMRVNKRTGKDRVRLQGSMLKPSSLVVVHPLAKPGADPCLYQNGGCEHICKKRLGTAWCSCREGFMKASDGKTCLALDGHQLLAGGEVDLKNQVTPLDILSKTRVSEDNITESQHMLVAEIMVSDQDDCAPVGCSMYARCISEGEDATCQCLKGFAGDGKLCSDIDECEMGVPVCPPASSKCINTEGGYVCRCSEGYQGDGIHCLDIDECQLGEHSCGENASCTNTEGGYTCMCAGRLSEPGLICPDSTPPPHLREDDHHYSVRNSDSECPLSHDGYCLHDGVCMYIEALDKYACNCVVGYIGERCQYRDLKWWELRHAGHGQQQKVIVVAVCVVVLVMLLLLSLWGAHYYRTQKLLSKNPKNPYEESSRDVRSRRPADTEDGMSSCPQPWFVVIKEHQDLKNGGQPVAGEDGQAADGSMQPTSWRQEPQLCGMGTEQGCWIPVSSDKGSCPQVMERSFHMPSYGTQTLEGGVEKPHSLLSANPLWQQRALDPPHQMELTQ
modifications: Pro-epidermal growth factor encapsulated in programmable-release capsules
maximum cell velocity of leading A549 cells ([1]; guidance of EGF cues from sequentially laser-ruptured capsules in fibrin gel, x-direction displacement, mean±s.d., n=4): 15.48±1.05 μm/h
growth (proliferation) of tumor cells, cellular fluorescence intensity ([1]; laser-triggered EGF release vs no release, 10 days): accelerated
transendothelial behavior (extravasation) of A549s [2]: cells underwent both extravasation and proliferation
directed migration of M4A4 cells [3]: exhibited directional movement
migratory response of HUVECs to EGF gradients [4]: negative migratory response
